Experiment: yeast display, Sf9 membrane polyspecificity reagent, FACS + sequencing; frameworks hold sequencing errors
Summary of the method: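 Sorting gates, low and high (top ~1%), were placed on anti-HA fluorescence to track expression and on streptavidin fluorescence to track reagent binding. A clone's polyreactivity label is taken from the gate it came out of. The reagent was 10% biotinylated, detergent-solubilized Sf9 membrane, applied for 1 hour at 4 °C to galactose-induced yeast display cells.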

Row | Sequence | polyreactivity (PSR sort gate)
1 | QVQLVESGGGLVQAGGSLRLSCAASGYTFNKYAMGWYRQATGKGRELVATIRNGGNTYYADSVKGRFTISRDNAKITVYFQMNSLKPEDTAVYYCAATVRGVGYRYYYWGQGTQVTVSS | high polyreactivity
2 | QVQLVESGGGILQAGGSLRLSCAASGSTFSYYAMGWYRQAPGKERELVAAISYSGGRTYYADSVKGRFTISRDNAKNTVYLQMNSLKPEDTAVYYCAASGVFDSTRGVYYWGQGTQVTVSS | high polyreactivity
3 | QVQLVESGGGLVQAGGSLRLTCGASGFTFDSYAMGWSRQEPGKERELVAAISTIGGRTYYADSVKGRFTISRDNAKNTVYLQMNSLKPEDTAVYYCAAEQGTPSTNWYDYWGQGTQVTVSS | low polyreactivity
4 | QVQLVESGGGLVQAGGSLRLSCAASGRIFSYTARGWSRQAPGKERELVAAISGSTGNTYYADSVKGRFTISRDNAKTTLYLQMNSLKPEDTAVYYCNKLGYKYDYWGQGTQVTVSS | high polyreactivity
5 | QVQLVESGGGLVQAGGSHRLSCAASGRTFGYNAMGWYRQAPGKERELVAAISRSGGRTYYADSVKGRFTISRDNAKNTVYLHMNRLKPEDTAVYYCAAESYHRGYDYWGQGTQVTVSS | high polyreactivity
6 | QVQLVESGGGLVQAGGSLRLSCAASGRTFEGYAMGWYRQAPGKERELVAAISGSSGSTYYADSVKGRFTISRDNAKNTVYLQMNSLKPEDTAVYYCNADYDWPGGSDYWGQGTQVTVSS | low polyreactivity
7 | QVQLVESGGGLVQAGGSLRLSGAASGRTFKHYVMGWYRQAPGKARELVAAYRSGGRTNYADSVKGRFTISRDNAKNTVYLQMNRVKPADTAVYYCAARYFSQYQGAGYDSWGQGTQVTVSS | high polyreactivity
8 | QVQLVESGGGLVQAGGSLRLSCSASGIIFRGYAMGWYRQAPRKERELVAGITSGGDTNYADSVKGRFTISRDNAKNTVYLQMNSLKPEETAVYYCNVALQAKGMGYWGQGTQVTVSS | low polyreactivity
9 | QVQLVESGGGLVQAGGSLRLSCAASGRIFQYYAMGWYRQAPGKERELVAAIDQSGDTTYYADSVKGRFTISRDNAKNTVYLQMNSLKPEDTAVYYCAAGYDWAYHWVPQWMYFWGQGTQVTVSS | low polyreactivity
10 | QVQLVESGGGLVQAGGSLRLSCAASGSTFIYNAMGWYRQAPGKERELVAGITGSGGSTYYADSVKGRFTISRDNAKNNVYLQMNSLKPEDTAVYYCAADRHIHYTDARMDYWGQGTQVTVSS | low polyreactivity
11 | QVQLVESGGGLVQAGGILRLSCAASGLIFSYNTMGWYRHAPGKERELVAGNTSSGSTYYADSVKGRFTISRDNAKNSVYLQMNSLKPEDTAVYYCAAEWDDGRSWYWYYLVGFEYWGQGTQVTVSS | high polyreactivity
12 | QVQLVESGGGLVQAGGSLRLSCAASGSTFVDYAMGWDRQAPGKERELVAGINGSGGSTYYADSVKGRFTISRDNAKNTVYLQMNSLKPEDTAVYYCAKDGSNRLALPAWDYNYWGQGTQVTVSS | low polyreactivity
13 | QDQLVESGGCLVQAGLSLRLSCAASGSTFGPYAMGWYRQAPGKERELVADISGGSTNYADSVKGRFTISRDNAKNTVYLQLNSLKPEDTAFYYCATDDHVETVRRLYGDWGQGTQVTVSS | low polyreactivity
14 | QVQLVESGGGLVQAGGSLRLSCAASGRTFFYYSMGWYRQAPGKERELVATITKRGGSTYYADSVKGRFTISRDNAKNTVYLQMNSLKPEDTAVYYCNATLGRTTAVFKYYWGQGTQVTVSS | high polyreactivity
15 | QVQLVESGGGLVQAGGSLRLSCAASGSIFVVNAMGWYRPAPGKERELVAAINWSDGSTYYADSVKGRFTISRDTAKNTVYLQLTSLKPEDTAVDYCAAEVPYFYFEGWNYDYWGQGTQVTVSS | high polyreactivity
16 | QVQLVESGGGLVQAGGSLRLSCAASGRTLLYYAMGWYRQAPGKERELVASISRGSSTNYADSVKGRFTISRDNAKNTVYLQMNSLKPEDTAVYWGQGTQVTVSS | low polyreactivity
17 | QVQLVESGGGLVQAGGSLRLICAASGLTFADYAMGWYRPAPGKERELVAAISRRGGSTYYADSVKGRFTISRDNAKNTVYLQMNSLKPEDTAVYYCAAYAYDVAFKRYKFDYWGQGTEVTVSS | high polyreactivity
18 | QVQLVESGGGLVQAGGSLRLSCAASGSTFPVYAMGWYRQAPGKERELVAAITSGVSTNYADSVKGRFTISRDNAKNTVYLQMNSLKPEDTAFYYCAKDFGLLPIRDDYWGQGTQVTVSS | low polyreactivity
19 | QVQLVESGGALVQEGRSLRLSCAASGGTFADYPMGWYRQAPVKERELVAAITNGGSTFYADSVKGRFTSSRDNATNTVYLQMNSLKPDDTAVYYWSAVYLYAYSPYFSAVEMYYWGQGSQVTVSS | low polyreactivity
20 | QVQLVESGGGLVQAGGSLRLSCAASGRIFRYNAMGWYRQAPGKERELVAAISGSGDRMYYADSVKGRFTISRDNAKNTVYFHMNSLKPEDTAVYYCAADVVWRQYGSWFYYWGQGTQVTVSS | high polyreactivity
21 | QVQLVESGGGLFQAGGSLRLICAASGFIFGWYDMGWYRQAPGKERELVAAIDSGGSTNYADSVKGRFTISRDNAKYTVYLQMNSLKPEDTAVYYCAADHHDVWTEYYYWGHGTQVTVSS | low polyreactivity
22 | QVHLVESGGGLVQAGGSLRLSCAASGLPFSQNAMGWNRQAPGKERELVAAINTSDDSTYYADSVKGRFTISRDNAKNTVYLQMNSLKPEDTAVYDCAVDGYWYGGIFYYWGQGTQVTVSS | low polyreactivity

Row | Sequence | polyreactivity (PSR sort gate)
23 | QVQLVESGGGLVQAGGSLRLSCAASGRTFPGNAMGWYRQAPGKERELVAAISSRGGSTYYADSVKGRFTISRDNAKYTVYFQMNSLKPEDTALYYCARRYLPYGGYYYWGQGTQVTVSS | high polyreactivity
24 | QVQLVESGGGLVQAGGSLRLSCAASGGTFSGYTMGWYRQAPGKERELVAAINWSGGRTYYADSVKGRFTISRDNAKNTAYLQMNSLKPEDTAVYYSNKYGLYYREYDYWGQGTQVTVSS | high polyreactivity
25 | QVQLVESGGGLVQAGGSLRLSCAASGNIFGLNSMGWYRQAPGIDRELVSAISKSGGSTFYADSVKGRFKISRDNAKNTVYLQMNSLKPEDTAVYYCAARWNGARPNHTYGYWGQGTQVTVSS | high polyreactivity
26 | QVQLVESGGGLVQARGSLRLTCAASGNIFVSYAMGWYRPAPGKERELVAAISKRGGSTYYADSVKGRFTISRDNAKNTVDLQMISLKPEDTAVYYCAALGHVDDSIYDYWGQGTQVTVSS | high polyreactivity
27 | QVQLVESGGGLVQAGGSLRLSCAASGRIFVHYVMGWYRQAPGKERELVAAISRSGGRTYYADSVKGRFTISRDNAKNTVYLQMNSLKPEDTAVYYCNVYHWSRVFAIDYYWGQGTQVTVSS | high polyreactivity
28 | QVQLVESGGGLVQAGGSLRLSCAASGRTFIWYVMGWYRQAPGKERELVATISYGGITYYADSVKRRFTISRDNAKNTVYLQMNSLKPEDTAVYYCAAYKYTHKPHGDYWGQGTQVTVSS | high polyreactivity
29 | QVQLVESGGGLVQAGGSLRLSCAASGRTFRFYTMGWYRQAPGKERELVADISWTSGRTYYADSVKGRFTISRDNAKNTVYLQMNSLKPEDTAVYYCAAYFFSRYSLYDYWGQGTQVTVSS | high polyreactivity
30 | QVQLVESGGGLFQAGGSLRLSCAASGSIFSWNDIGRYIQAPGKERELVAAITSGGSTYYADSVKGRFTISRDNAKNTVYLQMNSLKPEDTAVYYCAAGQDLHDFDYWGQGTQVTVSS | low polyreactivity
31 | QVQLVESGGGLVQAGGSLRLSCAAMGWYRQAPGKERELVATLTWSGGSTYYADSVKGRFTISRDNAKNPVYLQMNRLKPEDTAVYYCNARATLLSPANTIRGYDYWGQGTQVTVSS | low polyreactivity
32 | QVQLVESGGGLVQAGGSLRLSCAASGFIFNKYAMGWYRQAPGKERQLVATIRRDGSTNYADSVKGRFTISRDNAKNTVYLQMNSLKPEDTAVYYCAVRPYYWSRDYYWGQGTQVTVSS | high polyreactivity
33 | QVQLVESGGGLVQAGGSLRLSCAASGIILIQNSMGWSRHAPGKERELVAAISTRGGRTYYADSVKGRFTISRDNAKNTVYLQMNSLKPEDTAVYYCAAYRTTPYRDYKMDYWGQGTQVTVSS | high polyreactivity
34 | QVQLVESGGGLVQAGGSLRLSCAASGSIFGRNAMGWYIQAPGKERELVAAINSGGSTNYADSVKGRFTISRDNAKNTVYLQMNSLKPEDTAVYFCAARTYSSGRYYGYVAFYYWGQGTQVTVSS | high polyreactivity
35 | QDQLVESGGGLVQAGGSLRLSCAASGSTLYAYAMGWYRQAPGKERELVAASRTGGSTYYADSLKGRFTISRDNAKNTVYLQMNSLKPEDTAVYYCAALYYHEYDYWGQGTQVTVSS | low polyreactivity
36 | QVQLVESGGGLVQAGGSLRLSCAASGITFGRNAMGWYRQAPGKERELVAAISRGGSTNYADSVKGRFTISRDNAKNTVYLQMNSLKPEDTAVYYGNALSWPHGSWIPIHRRYGYWGQGTQVTVSS | high polyreactivity
37 | QVQLVESGGGLVQAGGSLRFSCAASGFTFYLYTMGWYRQAPGKDRELVAAINYSGGTTYYADSVKGRFTISRDNAKNTVYLQMNSLKPEDTAVYYCAATVGYSYNPRKNYYWGQGTQVTVSS | low polyreactivity
38 | QVQLVESGGALVQAGGSLRLSCAASGFTFFRNAMGWYRQAPGKERELVAAISGSGGSTYYADSVKGRFTISRDNAKNTVYLQMNSLKPEDTAVYYCATYSYPAKVREAYNYWGQGTQVTVSS | low polyreactivity
39 | QVQLVESGGGLVQAGGSLRLSCAASGSIFASNAMGWYRQAPGKERELVAAITTSGDSTYYADSVKGRFTISRDHAKTTVYFQMNSLKPEDTAVYYCATDKGWGLMDSWGQGTQVTVSS | low polyreactivity
40 | QVQLVESGGGLVQAGGRLRLSCAASGLICNANPMGWYRQAPGKEREFVAAITTSGGKTYYADSVKGRFTISRDNAKYTVYLQMNSLKPEDTAVYYCAATDLYFWYPYWFAFEYDYWGLGTQVTVSS | high polyreactivity
41 | QVQLVESGGGLVQAGGSLRLSCAASGSIFGEYAMGWYRQAPGKERELVADITTGGNTNYADSVKGRFTISRDNAKNTVYLQMNSLKPEDSAVYYCYAFGNTYGYWWFGYWGQGTQVTVSS | low polyreactivity
42 | QVQLVESGGGLVQAGGSLRLSCAASGLTLKYYAMGWYRQAPGKERELVAAITYSGGSTYYADSVKGRFTFSRDNAKNTVYLQMNSLIPEDTAVFYCNAGPSVTSGYDYDYWGQGTQVTVSS | low polyreactivity
43 | QVQLVESGGGLVQAGGSLRLICAASGNIFVPNAMGWYREAPGKEWELVAAIRRGGSTNYADSVKGRFTISRDNAKTTVYFQMNSLKPEDTAVYYCAKSRVSFTDLEGYYWGQGTQVTVSS | low polyreactivity

Source: the nanobody polyreactivity screen of Harvey et al. (2022)
